Experimental data: publication PMC8017925, “Structural basis for differential recognition of phosphohistidine-containing peptides by 1-pHis and 3-pHis monoclonal antibodies” (Proceedings of the National Academy of Sciences of the …, 2021)
*1 amine or outer side, *2 acyl side, *3 side chain or, on linkers, in order; H or OH if unused. Where no end group is shown, it is not given here. [ ]: non-standard residue; d: D form. The star is where a group is joined. 1‑pHis = 1-phosphohistidine, O=C([C@H](Cc1cncn1P(=O)(O)O[*:3])N[*:1])[*:2]; Biotin = O=C1N[C@H]2[C@H](CS[C@H]2CCCCC(=O)*)N1

Experiments:
[1] = Stability of 1- and 3-pHis peptides with and without pHis mAbs (BLI read-out); format: physicochemical; conditions: phosphorylated ACLYana, 0-24 h, no pHis mAbs; read-out BLI signal at end of association, normalized to 0 h
Method: Next, we examined the ability of these Fabs to recognize phosphorylated substrates using differential scanning fluorimetry (DSF).
Fig. S6. Stability of 1- and 3-pHis peptides in the presence of pHis mAbs. In the BLI experiment, analytes were SC50-3 (A and B) and SC44-8 (C and D) Fabs and ligand was the ACLYana peptide.
Prior to the experiment, the peptide was phosphorylated with phosphoramidate and divided into two sets - set A and set B. The set A peptide was incubated with 1- and 3-pHis mAbs separately for extended periods of time (0 - 24 h) and set B was not incubated with pHis mAbs. The ACLYana-pHis peptide incubated with the mixture of 1-pHis IgGs (A, continuous lines) and 3-pHis IgGs (C, continuous lines) has the higher signal intensity at all time points compared to […]
(discontinuous lines). The BLI signal intensity at the end of association phase was used to compare the rate of hydrolysis with (set A) and without incubation with pHis mAbs (set B). The signal intensities were normalized to the 0 h (B and D). The unphosphorylated peptide was used as a […]
the rate of dephosphorylation. In the absence of pHis mAb incubation, 1-pHis peptide hydrolyzed […]
(1 picture or pasted object on this page, not shown here)

[2] = substrate: SCS peptide, 3-pHis form; experiment: BLI; biotinylated pHis peptides (20 nM) on streptavidin biosensors, Fab in solution at varying concentrations; 50 mM Hepes pH 8.0, 150 mM NaCl, 0.05% Tween-20, 0.2% BSA; Octet RED96e; global fit to a 1:1 Langmuir model
[3] = target: ACLY peptide, phosphorylated, 3-pHis form; experiment: BLI; N-terminally biotinylated peptides (20 nM) on streptavidin biosensors, varying concentrations of Fab in solution; 50 mM Hepes pH 8.0, 150 mM NaCl, 0.05% Tween-20, 0.2% BSA; association 120 s, dissociation 200 s; global fit to a 1:1 Langmuir model; Octet RED96e; in triplicate
[4] = target: T1, ACLYana-3-pHis peptide (AGAG-3-pHis-AGAG); experiment: as above
T1 sequence (peptide, 3-phosphohistidine at position 5; biotin on the N-terminus): AGAGHAGAG

[5] = target: ACLYana-3-pTza peptide (AGAG-3-pTza-AGAG); experiment: as above
[6] = substrate: SCS peptide, phosphorylated, 3-pHis form; experiment: as above
[7] = target: T2, ACLY peptide, 3-pHis form; experiment: BLI; biotinylated pHis peptides (20 nM) on streptavidin biosensors, Fab in solution at varying concentrations; 50 mM Hepes pH 8.0, 150 mM NaCl, 0.05% Tween-20, 0.2% BSA; Octet RED96e; global fit to a 1:1 Langmuir model
T2 sequence (peptide, biotin on the N-terminus; C-terminal amide; 3-phosphohistidine at position 5): VQFGHAGAC

Q: For “1-pHis peptide: 1-pHis isomer of phosphorylated ACLYana peptide (Biotin-AGAG[1‑pHis]AGAG)”, which “hydrolysis of pHis peptide in the absence of pHis mAb incubation” value [1] is on record?
A: faster than 3-pHis peptide

B1: SC44-8 Fab (Fab, V domains shown)
VH: QSVKESGRGLVQPGGSLTLTCTASGFSIDSYGFSWVRQAPGKGLEHIGYLTAGGRAFYASWAKSRSTITRNTNENTVTLKMTSLTAADTATYFCAKLGSGNPVAIWGPGTLVTVSS
VL: QVLTQTPSFTSAAVGGTVTINCQSSQSVWRNKNLAWYQQKPGQPPKRLIYAIATLDSGVPSRFSGSGSGTQFTLTISDVQCDDAATYYCVGHYGSENDAYYAFGGGTEVVVK
Q: What does the source list for B1?
A: Kd [2]: 467 nM; koff [2]: 0.0137 s⁻¹; kon [2]: 29300 M⁻¹ s⁻¹; BLI signal intensity for the association [3]: 0.5 nm; BLI signal intensity for the association [4]: 2 nm; Kd [4]: 18.2 nM; koff [4]: 0.0017 s⁻¹; kon [4]: 93600 M⁻¹ s⁻¹; Kd [5]: 0.235 nM; koff [5]: 3.66e-05 s⁻¹; kon [5]: 156000 M⁻¹ s⁻¹; BLI signal intensity for the association [6]: 0.5 nm; Kd [7]: 348 nM; koff [7]: 0.00972 s⁻¹; kon [7]: 28000 M⁻¹ s⁻¹
